Drawing on patent US20140288277, this text covers Kd for four substances.

Data set [1] relates to Fab16 (anti-FNIII, YSGR Min clone 16) (synthetic). Description: filter. The following applies: filter binding / dot blot assay.
For data set [2], the system named is Fab8 (anti-P4-P6, YSGR Min clone 8) (synthetic). Briefly: FP. The following applies: filter binding / dot blot assay.
Data set [3] deals with Fab11 (anti-P4-P6, YSGR Min clone 11) (synthetic). Description: filter. The following applies: filter binding / dot blot assay.
In data set [4] the test system is Fab29 (anti-VCIII, YSGR Min clone 29) (synthetic). Briefly: filter. The following applies: filter binding / dot blot assay; Example 2 names the V. cholerae target VCLD1.
The subject of data set [5] is Fab30 (anti-VCIII, YSGR Min clone 30) (synthetic). Description: filter. Conditions: filter binding / dot blot assay; Example 2 names the V. cholerae target VCLD1.
Data set [6] has as its system T1, Fab7 (anti-tRNAiMet) (synthetic).
T1 sequence: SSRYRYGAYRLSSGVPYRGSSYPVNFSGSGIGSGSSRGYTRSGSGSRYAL
Briefly: filter. Conditions: soluble Fab; discrete complex also in native gel.

The test system of data set [7] is Fab1 (anti-tRNAiMet, YSGRX clone 1), phage displayed (synthetic). Description: competition. Conditions: competitive phage ELISA; selection RNA carried a 29 nt 3' tag.

A word on the pKd: it is the negative decadic logarithm of the Kd, by convention in mol/L. High values mean a small Kd, low ones a large Kd.

pKd: −log10 of the molar value.

In data set [1], FNIII glycine riboswitch gave a pKd of 6.80. Consider “P4-P6 domain of Tetrahymena group I intron”, for which the pKd is 7.28 in data set [2] and 7.70 in data set [3]. With VCIII glycine riboswitch, the pKd in data set [4] was 7.42; in data set [5], 7.66. human initiator tRNAiMet transcript: the figures for the pKd in data set [6] and in data set [7] were 7.23 and 7.28, respectively.
